US20180155451A1 (published 2018)
Numbering of substitutions follows the chain as printed.

T1: FcγRIIa H (FcγRIIa type H, His at position 131), extracellular domain with C-terminal His tag (human, UniProt P12318 34-217)
T1 construct: extracellular domain; Expressed in FreeStyle293 cells; analyte in the Biacore assay; also called FcgRIIa H; 2aH; not shown: His tag at the C terminus
T1 sequence (looked up): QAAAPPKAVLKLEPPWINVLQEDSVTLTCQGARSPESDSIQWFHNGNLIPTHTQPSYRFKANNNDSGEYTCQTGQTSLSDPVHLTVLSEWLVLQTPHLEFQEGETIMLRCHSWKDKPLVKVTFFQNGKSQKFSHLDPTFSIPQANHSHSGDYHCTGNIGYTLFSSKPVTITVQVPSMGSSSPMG

T2: FcγRIIb, extracellular domain with C-terminal His tag (human, UniProt P31994 43-217)
T2 construct: extracellular domain; soluble receptor used as Biacore analyte; also called 2b; FcgRIIb
T2 sequence (looked up): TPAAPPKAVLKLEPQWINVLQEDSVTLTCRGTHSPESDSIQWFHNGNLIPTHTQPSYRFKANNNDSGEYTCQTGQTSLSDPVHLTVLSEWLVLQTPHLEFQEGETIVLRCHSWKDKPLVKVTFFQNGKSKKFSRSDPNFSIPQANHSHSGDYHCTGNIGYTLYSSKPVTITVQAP

T3: FcγRIIa R (FcγRIIa, allotype R, Arg at position 131), extracellular domain with C-terminal His tag (human, UniProt P12318 34-217)
T3 construct: extracellular domain; soluble receptor used as Biacore analyte; also called 2aR; FcgRIIa R
T3 sequence (looked up): T1 sequence (looked up) with H134R

B1: GpH7-A5/GpH7-B3 variant A327_12R/GpL16-k0 (antibody, human IgG1, kappa)
heavy 1: not shown
heavy 2: not shown
light: DIVMTQSPLSLPVTPGEPASISCQASESLVHSNRNTYLHWYLQKPGQSPQLLIYKVSNRFSGVPDRFSGSGSGTDFTLKISRVEAEDVGVYYCSQNTHVPPTFGQGTKVEIERTVAAPSVFIFPPSDEQLKSGTASVVCLLNNFYPREAKVQWKVDNALQSGNSQESVTEQDSKDSTYSLSSTLTLSKADYEKHKVYACEVTHQGLSSPVTKSFNRGEC
notes: He Ab; IgG1; mutation in one H chain only; also called He Ab
B2: GpH7-A5/GpH7-B3 variant L328_12R/GpL16-k0 (antibody, human IgG1, kappa)
heavy 1: not shown
heavy 2: not shown
light: B1 light
notes: as for B1
B3: GpH7-A5/GpH7-B3 variant L328_11K/GpL16-k0 (antibody, human IgG1, kappa)
heavy 1: not shown
heavy 2: not shown
light: B1 light
notes: as for B1
B4: GpH7-A5/GpH7-B3 variant Y300_03V/GpL16-k0 (antibody, human IgG1, kappa)
heavy 1: not shown
heavy 2: not shown
light: B1 light
notes: heterodimerized IgG1; mutation in one H chain only; also called He Ab
B5: GpH7-A5/GpH7-B3 variant Y300_09D/GpL16-k0 (antibody, human IgG1, kappa)
heavy 1: not shown
heavy 2: not shown
light: B1 light
notes: as for B4
B6: GpH7-A5/GpH7-B3 variant Y300_08L/GpL16-k0 (antibody, human IgG1, kappa)
heavy 1: not shown
heavy 2: not shown
light: B1 light
notes: as for B4
B7: GpH7-A5/GpH7-B3 variant Y300_19Q/GpL16-k0 (antibody, human IgG1, kappa)
heavy 1: not shown
heavy 2: not shown
light: B1 light
notes: as for B4
B8: GpH7-A5/GpH7-B3 variant Y296_19Q/GpL16-k0 (antibody, human IgG1, kappa)
heavy 1: not shown
heavy 2: not shown
light: B1 light
notes: as for B4
B9: GpH7-A5/GpH7-B3 variant Y300_06M/GpL16-k0 (antibody, human IgG1, kappa)
heavy 1: not shown
heavy 2: not shown
light: B1 light
notes: as for B4
B10: GpH7-A5/GpH7-B3 variant Y300_13S/GpL16-k0 (antibody, human IgG1, kappa)
heavy 1: not shown
heavy 2: not shown
light: B1 light
notes: as for B4
B11: GpH7-A5/GpH7-B3 variant Y300_02A/GpL16-k0 (antibody, human IgG1, kappa)
heavy 1: not shown
heavy 2: not shown
light: B1 light
notes: as for B4
B12: GpH7-A5/GpH7-B3 variant Y300_11K/GpL16-k0 (antibody, human IgG1, kappa)
heavy 1: not shown
heavy 2: not shown
light: B1 light
notes: as for B4
B13: GpH7-A5/GpH7-B3 variant Y300_10E/GpL16-k0 (antibody, human IgG1, kappa)
heavy 1: not shown
heavy 2: not shown
light: B1 light
notes: as for B4
B14: GpH7-A5/GpH7-B3 variant Y300_20W/GpL16-k0 (antibody, human IgG1, kappa)
heavy 1: not shown
heavy 2: not shown
light: B1 light
notes: as for B4
B15: GpH7-A5/GpH7-B3 variant Y300_14T/GpL16-k0 (antibody, human IgG1, kappa)
heavy 1: not shown
heavy 2: not shown
light: B1 light
notes: as for B4
B16: GpH7-A5/GpH7-B3 variant Y296_20W/GpL16-k0 (antibody, human IgG1, kappa)
heavy 1: not shown
heavy 2: not shown
light: B1 light
notes: as for B4
B17: heterodimerized antibody GpH7-A5/GpH7-B3 variant S267_08L/GpL16-k0 (antibody, human IgG1, kappa)
heavy 1: not shown
heavy 2: not shown
light: B1 light
notes: He Ab: anti-glypican-3 IgG1, alteration in one H chain only; also called He Ab

Target: T1, FcγRIIa H (FcγRIIa type H, His at …)
Experiment: SPR Biacore, captured antibody, FcgR analyte; GpH7-A5/GpH7-B3/GpL16-k0 = 100

He/Con_2aH | Binder
11.3 % of HeCon Ab | B1
42.5 % of HeCon Ab | B2
32.2 % of HeCon Ab | B3

Target: T1, FcγRIIa H (FcγRIIa type H, His at …)
Experiment: SPR Biacore; He/Con_2aH divided by He/Con_2b (reference: FcgRIIb)

He_2aH/2b (IIaH/IIb) | Binder
1.26 | B1
4.6 | B2
4.27 | B3

Target: T4, FcγRIa (human, UniProt P12314 16-292)
T4 construct: extracellular domain; also called FcgRI; CD64; not shown: C-terminal His tag
T4 sequence (P12314 16-292): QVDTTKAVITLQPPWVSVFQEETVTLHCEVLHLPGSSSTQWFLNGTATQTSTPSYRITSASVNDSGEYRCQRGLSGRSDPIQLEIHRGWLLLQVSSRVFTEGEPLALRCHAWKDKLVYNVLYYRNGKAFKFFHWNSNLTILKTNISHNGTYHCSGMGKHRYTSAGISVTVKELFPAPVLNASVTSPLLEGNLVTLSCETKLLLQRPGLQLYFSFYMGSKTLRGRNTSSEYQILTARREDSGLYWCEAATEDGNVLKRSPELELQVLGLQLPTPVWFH
Experiment: SPR (Biacore), antibody captured on antigen peptide chip, FcγRIa as analyte; relative binding amount
Procedure: (§1) Analysis of interaction between objective antibody and the FcγR was carried out using Biacore T100 (GE Healthcare). HBS-EP+ (GE Healthcare) was used as the running buffer, and the measurement temperature was set to 25° C. Chips produced by immobilizing the antigen peptide by the amine coupling method to a Series S Sencor Chip CM5 (GE Healthcare), or alternatively, chips produced by allowing preliminarily biotinylated antigen peptides to interact with and immobilize onto a Series S Sensor Chip SA (certified) (GE Healthcare) were used. Antibodies of interest were captured onto an antigen peptide-immobilized chip, and allowed to interact to each FcγR diluted with running buffer. To regenerate and repeatedly use the chip, the antibodies captured on the chip were washed off by reacting 10 mM glycine-HCl, pH 1.5.

He/Con_1a | Binder
117 % of control (GpH7-A5/GpH7-B3/GpL16-k0 = 100) | B4
112 % of control (GpH7-A5/GpH7-B3/GpL16-k0 = 100) | B5
113 % of control (GpH7-A5/GpH7-B3/GpL16-k0 = 100) | B6
112 % of control (GpH7-A5/GpH7-B3/GpL16-k0 = 100) | B7
112 % of control (GpH7-A5/GpH7-B3/GpL16-k0 = 100) | B8
112 % of control (GpH7-A5/GpH7-B3/GpL16-k0 = 100) | B9
111 % of control (GpH7-A5/GpH7-B3/GpL16-k0 = 100) | B10
112 % of control (GpH7-A5/GpH7-B3/GpL16-k0 = 100) | B11
107 % of control (GpH7-A5/GpH7-B3/GpL16-k0 = 100) | B12
114 % of control (GpH7-A5/GpH7-B3/GpL16-k0 = 100) | B13
112 % of control (GpH7-A5/GpH7-B3/GpL16-k0 = 100) | B14
112 % of control (GpH7-A5/GpH7-B3/GpL16-k0 = 100) | B15
111 % of control (GpH7-A5/GpH7-B3/GpL16-k0 = 100) | B16

Target: T2, FcγRIIb, extracellular domain with …
Experiment: Biacore SPR; binding relative to GpH7-A5/GpH7-B3/GpL16-k0 (=100)
Procedure: (§2) The heterodimerized antibodies He Abs in which one of the H chains was introduced with an alteration were assayed for their binding activities to each activating FcγR and inhibitory FcγR according to the method described in Example 4. […] The activating FcγRs in FIGS. 26, 27, 28, and 29 are FcγRIa, FcγRIIa (R), FcγRIIa (H), and FcγRIIIa, respectively.
as §1

He/Con_2b (IIb binding) | Binder
109 % of control | B17

Target: T3, FcγRIIa R (FcγRIIa, allotype R, Arg at …)
Experiment: as above
Procedure: as §2, §1

He/Con_2aR (IIaR binding) | Binder
72.1 % of control | B17

Target: T3, FcγRIIa R (FcγRIIa, allotype R, Arg at …)
Experiment: Biacore SPR; He/Con_2aR divided by He/Con_2b (FcγRIIb)
Procedure: as §2, §1

IIaR/IIb (He_2aR/2b) | Binder
0.66 | B17
